PMC11815680, “Receptor-independent regulation of Gα13 by alpha-1-antitrypsin C-terminal peptides” (The Journal of Biological Chemistry, 2024)

What was measured:
Settings in all cases: both partners purified
[1] = target: T1, GST-LARG-RH (human LARG amino acid residues 319-598) (human, UniProt Q9NZN5 319-598); assay: pull-down; as a2 but buffer A with 10 μM GDP and mAAT-C_(3-16) added instead of AlF4^-
T1 construct: human LARG (leukemia-associated RhoGEF), amino acid residues 319-598; also called leukemia-associated RhoGEF RH; source: E. coli BL21[DE3], purified (glutathione-sepharose 4B, eluted with glutathione, dialysed)
T1 sequence (looked up): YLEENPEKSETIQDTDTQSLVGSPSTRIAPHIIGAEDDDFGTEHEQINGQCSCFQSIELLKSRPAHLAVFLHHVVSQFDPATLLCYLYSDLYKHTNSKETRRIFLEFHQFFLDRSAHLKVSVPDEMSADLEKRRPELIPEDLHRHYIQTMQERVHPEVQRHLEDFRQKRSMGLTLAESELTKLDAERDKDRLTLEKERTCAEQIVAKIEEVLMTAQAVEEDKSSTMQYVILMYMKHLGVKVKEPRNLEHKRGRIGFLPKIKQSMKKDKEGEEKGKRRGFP

[2] = target: T2, GST-p115-RH(42-252), the RGS box of p115-RhoGEF-RH which lacks the N-terminal extension (human, UniProt Q92888 42-252); assay: pull-down; as a2 but buffer A with 10 μM GDP and mAAT-C_(1-17) added instead of AlF4^-
T2 construct: human p115RhoGEF, residues 42-252 (RGS box, lacks the N-terminal extension); also called p115-RhoGEF-RH domain (42–252); source: E. coli BL21[DE3], purified (glutathione-sepharose 4B, eluted with glutathione, dialysed)
T2 sequence (looked up): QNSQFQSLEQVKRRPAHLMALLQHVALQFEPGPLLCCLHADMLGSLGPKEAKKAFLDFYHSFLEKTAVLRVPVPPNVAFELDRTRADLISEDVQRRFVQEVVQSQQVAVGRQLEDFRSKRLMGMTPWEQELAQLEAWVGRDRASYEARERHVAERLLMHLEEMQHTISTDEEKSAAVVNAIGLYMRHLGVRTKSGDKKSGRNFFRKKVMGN

[3] = target: T3, GST-p115-RH (human p115RhoGEF amino acid residues 1-252, N-terminal region including the RH domain) (human, UniProt Q92888 1-252); assay: pull-down; GST-RH protein on glutathione-Sepharose 4B, untagged Gα13iN (2 μg) in buffer A (20 mM HEPES, 5 mM βME, 1 mM MgCl2, 100 mM NaCl, 10 μM GDP, 0.1% C12E10, pH 8.0) with AlF4^- (30 μM AlCl3, 5 mM MgCl2, 5 mM NaF), 60 min at 4 °C; blot with Gα13 antibodies
T3 construct: human p115RhoGEF, amino acid residues 1-252 (the results once say 1-246); also called p115-RhoGEF-RH; source: E. coli BL21[DE3], purified (glutathione-sepharose 4B, eluted with glutathione, dialysed)
T3 sequence (looked up): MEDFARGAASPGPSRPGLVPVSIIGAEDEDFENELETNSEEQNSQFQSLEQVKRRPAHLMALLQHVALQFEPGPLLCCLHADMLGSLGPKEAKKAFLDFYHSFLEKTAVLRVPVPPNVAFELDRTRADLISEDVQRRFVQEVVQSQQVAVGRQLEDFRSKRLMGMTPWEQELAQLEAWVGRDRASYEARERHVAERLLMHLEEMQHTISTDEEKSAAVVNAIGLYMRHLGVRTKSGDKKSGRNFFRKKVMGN

Measured: binding result

B1: untagged Gα13iN recombinant protein (GDP-bound) (other, rat | mouse, UniProt P10824 1-28, looked up)
chain: MGCTLSAEDKAAVERSKMIDRNLREDGERLVKILLLGAGESGKSTFLKQMRIIHGQDFDQRAREEFRPTIYSNVIKGMRVLVDAREKLHIPWGDNKNQLHGDKLMAFDTRAPMAAQGMVETRVFLQYLPAIRALWEDSGIQNAYDRRREFQLGESVKYFLDNLDKLGVPDYIPSQQDILLARRPTKGIHEYDFEIKNVPFKMVDVGGQRSERKRWFECFDSVTSILFLVSSSEFDQVLMEDRQTNRLTESLNIFETIVNNRVFSNVSIILFLNKTDLLEEKVQVVSIKDYFLEFEGDPHCLRDVQKFLVECFRGKRRDQQQRPLYHHFTTAINTENIRLVFRDVKDTILHDNLKQLMLQ
notes: N-terminal region (αN helix) of rat Gαi1, amino acid residues 1-28; A few vector residues are likely left after PreScission cleavage of the pGEX-6P-1 product (surmise); also called Gα13iN・GDP; Gα13・GDP; source: E. coli BL21[DE3], purified (glutathione-sepharose 4B, cut off the column with PreScission Protease, dialysed; GDP added to 10 μM)
binds: all assays above
